Experimental data taken from US7462599.

What was measured:
H-Gln-Asn-Gly-Ile-NH2 = molecular target: T1, H-Gln-Asn-Gly-Ile-NH2
T1 chain: QNGI

H-Gln-Arg-Gly-Ile-NH2 = molecular target: T2, H-Gln-Arg-Gly-Ile-NH2
T2 chain: QRGI

H-Gln-Glu-Tyr-Ala-NH2 = molecular target: T3, H-Gln-Glu-Tyr-Ala-NH2
T3 chain: QEYA

[Gln^1]-GnRH = molecular target: T4, [Gln^1]-GnRH
T4 chain: QHWSYGLRPG

H-Gln-Glu-Ala-Ala-NH2 = molecular target: T5, H-Gln-Glu-Ala-Ala-NH2
T5 chain: QEAA

H-Gln-Tyr-OH = molecular target: T6, H-Gln-Tyr-OH
T6 chain: QY

H-Gln-Pro-Tyr-Phe-NH2 = molecular target: T7, H-Gln-Pro-Tyr-Phe-NH2
T7 chain: QPYF

H-Gln-Ala-NH2 = molecular target: T8, H-Gln-Ala-NH2
T8 chain: QA

H-Gln-Glu-Asp-Leu-NH2 = molecular target: T9, H-Gln-Glu-Asp-Leu-NH2
T9 chain: QEDL

H-Gln-Gln-OH = molecular target: T10, H-Gln-Gln-OH
T10 chain: QQ

H-Gln-Trp-Ala-NH2 = molecular target: T11, H-Gln-Trp-Ala-NH2
T11 chain: QWA

H-Gln-Glu-Tyr-NH2 = molecular target: T12, H-Gln-Glu-Tyr-NH2
T12 chain: QEY

[1] = molecular target: T13, H-Gln-Ala-Ala-Ser-Ala-Ala-NH2
T13 chain: QAASAA

H-Gln-Val-OH = molecular target: T14, H-Gln-Val-OH
T14 chain: QV

H-Gln-His-Tyr-Phe-NH2 = molecular target: T15, H-Gln-His-Tyr-Phe-NH2
T15 chain: QHYF

H-Gln-Lys-Arg-Leu-NH2 = molecular target: T16, H-Gln-Lys-Arg-Leu-NH2
T16 chain: QKRL

H-Gln-Gln-Tyr-Phe-NH2 = molecular target: T17, H-Gln-Gln-Tyr-Phe-NH2
T17 chain: QQYF

H-Gln-Glu-Tyr-Phe-NH2 = molecular target: T18, H-Gln-Glu-Tyr-Phe-NH2
T18 chain: QEYF

[2] = molecular target: T19, H-βhomoGln-Phe-Lys-Arg-Leu-Ala-NH2
T19 chain: QFKRLA

H-Gln-Glu-OH = molecular target: T20, H-Gln-Glu-OH
T20 chain: QE

Gln^3-Aβ(3-11)a = molecular target: T21, Gln^3-Aβ(3-11)a
T21 chain: QFRHDSGYE

[3] = molecular target: T22, H-Gln-cyclo(Nε-Lys-Arg-Pro-Ala-Gly-Phe)
T22 chain: QKRPAGF

H-Gln-Gly-OH = molecular target: T23, H-Gln-Gly-OH
T23 chain: QG

H-Gln-Phe-Ala-NH2 = molecular target: T24, H-Gln-Phe-Ala-NH2
T24 chain: QFA

H-Gln-Tyr-Ala-OH = molecular target: T25, H-Gln-Tyr-Ala-OH
T25 chain: QYA

H-Gln-Arg-Tyr-Phe-NH2 = molecular target: T26, H-Gln-Arg-Tyr-Phe-NH2
T26 chain: QRYF

H-Gln-Ala-OH = molecular target: T27, H-Gln-Ala-OH
T27 chain: QA

H-Gln-Gly-Pro-OH = molecular target: T28, H-Gln-Gly-Pro-OH
T28 chain: QGP

[4] = molecular target: T29, H-Gln-Ala-Ala-Ala-Ala-NH2
T29 chain: QAAAA

[5] = molecular target: T30, [Gln^5]-substance P(5-11)
T30 chain: QQFFGLM

H-Gln-Ser-Tyr-Phe-NH2 = molecular target: T31, H-Gln-Ser-Tyr-Phe-NH2
T31 chain: QSYF

H-Gln-Glu-Ala-Phe-NH2 = molecular target: T32, H-Gln-Glu-Ala-Phe-NH2
T32 chain: QEAF

B1: recombinant human glutaminyl cyclase (QC, EC 2.3.2.5) (protein)
chain: VSPSASAWPEEKNYHQPAILNSSALRQIAEGTSISEMWQNDLQPLLIERYPGSPGSYAARQHIMQRIQRLQADWVLEIDTFLSQTPYGYRSFSNIISTLNPTAKRHLVLACHYDSKYFSHWNNRVFVGATDSAVPCAMMLELARALDKKLLSLKTVSDSKPDLSLQLIFFDGEEAFLHWSPQDSLYGSRHLAAKMASTPHPPGARGTSQLHGMDLLVLLDLIGAPNPTFPNFFPNSARWFERLQAIEHELHELGLLKDHSLEGRYFQNYSYGGVIQDDHIPFLRRGVPVLHLIPSPFPEVWHTMDDNEENLDESTIDNLNKILQVFVLEYLHL
- KM (substrate conversion by QC) (H-Gln-Asn-Gly-Ile-NH2): 172 µM
- KM (0.05 M Tris-HCl, pH 8.0) (H-Gln-Arg-Gly-Ile-NH2): 0.166 mM
- KM (0.05 M Tris-HCl, pH 8.0, 0.5 M KCl) (H-Gln-Arg-Gly-Ile-NH2): 0.091 mM
- KM (substrate conversion by QC) (H-Gln-Arg-Gly-Ile-NH2): 143 µM
- KM (substrate conversion by QC) (H-Gln-Glu-Tyr-Ala-NH2): 69 µM
- KM (substrate conversion by QC) ([Gln^1]-GnRH): 53 µM
- KM (substrate conversion by QC) (H-Gln-Glu-Ala-Ala-NH2): 77 µM
- KM (substrate conversion by QC) (H-Gln-Tyr-OH): 211 µM
- KM (substrate conversion by QC) (H-Gln-Pro-Tyr-Phe-NH2): 1890 µM
- KM (substrate conversion by QC) (H-Gln-Ala-NH2): 155 µM
- KM (0.05 M Tris-HCl, pH 8.0) (H-Gln-Glu-Asp-Leu-NH2): 0.06 mM
- KM (0.05 M Tris-HCl, pH 8.0, 0.5 M KCl) (H-Gln-Glu-Asp-Leu-NH2): 0.061 mM
- KM (substrate conversion by QC) (H-Gln-Glu-Asp-Leu-NH2): 55 µM
- KM (substrate conversion by QC) (H-Gln-Gln-OH): 148 µM
- KM (0.05 M Tris-HCl, pH 8.0) (H-Gln-Trp-Ala-NH2): 0.054 mM
- KM (0.05 M Tris-HCl, pH 8.0, 0.5 M KCl) (H-Gln-Trp-Ala-NH2): 0.056 mM
- KM (substrate conversion by QC) (H-Gln-Trp-Ala-NH2): 50 µM
- KM (substrate conversion by QC) (H-Gln-Glu-Tyr-NH2): 79 µM
- KM (substrate conversion by QC) [1]: 79 µM
- KM (substrate conversion by QC) (H-Gln-Val-OH): 196 µM
- KM (substrate conversion by QC) (H-Gln-His-Tyr-Phe-NH2): 68 µM
- KM (0.05 M Tris-HCl, pH 8.0) (H-Gln-Lys-Arg-Leu-NH2): 0.051 mM
- KM (0.05 M Tris-HCl, pH 8.0, 0.5 M KCl) (H-Gln-Lys-Arg-Leu-NH2): 0.034 mM
- KM (substrate conversion by QC) (H-Gln-Lys-Arg-Leu-NH2): 54 µM
- KM (substrate conversion by QC) (H-Gln-Gln-Tyr-Phe-NH2): 41 µM
- KM (substrate conversion by QC) (H-Gln-Glu-Tyr-Phe-NH2): 47 µM
- KM (substrate conversion by QC) [2]: KM=2.5±0.2 mM
- KM (0.05 M Tris-HCl, pH 8.0) (H-Gln-Glu-OH): 0.373 mM
- KM (0.05 M Tris-HCl, pH 8.0, 0.5 M KCl) (H-Gln-Glu-OH): 0.607 mM
- KM (substrate conversion by QC) (H-Gln-Glu-OH): 359 µM
- KM (buffer containing 1% DMSO) (Gln^3-Aβ(3-11)a): 155 µM
- KM (substrate conversion by QC) [3]: KM-values of 240±14 µM and 133±5 µM for human and papaya QC, respectively
- KM (substrate conversion by QC) (H-Gln-Gly-OH): 247 µM
- KM (substrate conversion by QC) (H-Gln-Phe-Ala-NH2): 69 µM
- KM (substrate conversion by QC) (H-Gln-Tyr-Ala-OH): 101 µM
- KM (substrate conversion by QC) (H-Gln-Arg-Tyr-Phe-NH2): 55 µM
- KM (0.05 M Tris-HCl, pH 8.0) (H-Gln-Ala-OH): 0.269 mM
- KM (0.05 M Tris-HCl, pH 8.0, 0.5 M KCl) (H-Gln-Ala-OH): 0.357 mM
- KM (substrate conversion by QC) (H-Gln-Ala-OH): 232 µM
- KM (substrate conversion by QC) (H-Gln-Gly-Pro-OH): 130 µM
- KM (substrate conversion by QC) [4]: 65 µM
- substrate conversion, determined qualitatively by MALDI-TOF [5]: *
- KM (substrate conversion by QC) (H-Gln-Ser-Tyr-Phe-NH2): 55 µM
- KM (substrate conversion by QC) (H-Gln-Glu-Ala-Phe-NH2): 39 µM
